Holding throughout (settings): remark: other sources report otherwise
The target of assay [1] is recombinant soluble homotrimeric HA of A/Solomon Islands/3/06 (H1N1) (Influenza A virus A/Solomon Islands/3/2006 (H1N1)). In words: HA microarray, BCC supernatant.
Assay [2] concerns the target recombinant soluble homotrimeric HA of A/chicken/Vietnam/NCVD-016/08 (H5N1) (Influenza A virus A/chicken/Vietnam/NCVD-016/2008 (H5N1)). In words: HA microarray, BCC supernatant.
The target in assay [3] is recombinant soluble homotrimeric HA of A/northern shoveler/California/HKWF115/2007 (H6N1) (Influenza A virus A/northern shoveler/California/HKWF115/2007 (H6N1)). Kind of assay: HA microarray, BCC supernatant.
For assay [4], the target named is recombinant soluble homotrimeric HA of A/California/4/09 (H1N1) (Influenza A virus A/California/04/2009 (H1N1)). In words: HA microarray, BCC supernatant.
Assay [5] deals with recombinant soluble homotrimeric HA of A/Vietnam/1203/04 (H5N1) (Influenza A virus A/Vietnam/1203/2004 (H5N1)). In words: HA microarray, BCC supernatant.
Assay [6] concerns the target recombinant soluble homotrimeric HA of A/Wisconsin/67/05 (H3N2) (Influenza A virus A/Wisconsin/67/2005 (H3N2)). Kind of assay: HA microarray, BCC supernatant.
Assay [7] deals with recombinant soluble homotrimeric HA of A/Japan/305/57 (H2N2) (Influenza A virus A/Japan/305/1957 (H2N2)). In words: HA microarray, BCC supernatant.
Assay [8] addresses recombinant soluble homotrimeric HA of A/Egypt/3300-NAMRU3/08 (H5N1) (Influenza A virus A/Egypt/3300-NAMRU3/2008 (H5N1)). Kind of assay: HA microarray, BCC supernatant.
The target of assay [9] is recombinant soluble homotrimeric HA of A/duck/Yangzhou/02/2005 (H8N4) (Influenza A virus A/duck/Yangzhou/02/2005 (H8N4)). Kind of assay: HA microarray, BCC supernatant.
Assay [10] concerns the target recombinant soluble homotrimeric HA of A/Anhui/1/05 (H5N1) (Influenza A virus A/Anhui/1/2005 (H5N1)). In words: HA microarray, BCC supernatant.
The target in assay [11] is recombinant soluble homotrimeric HA of A/Indonesia/5/05 (H5N1) (Influenza A virus A/Indonesia/5/2005 (H5N1)). Kind of assay: HA microarray, BCC supernatant.
The target in assay [12] is recombinant soluble homotrimeric HA, A/Hong Kong/1073/99 (H9N2) (influenza A virus A/Hong Kong/1073/99 (H9N2)). In words: microarray, trimeric HA, transfection supernatant.
The target of assay [13] is recombinant soluble homotrimeric HA, A/northern shoveler/California/HKWF115/2007 (H6N1) (influenza A virus A/northern shoveler/California/HKWF115/2007 (H6N1)). Kind of assay: microarray, trimeric HA, transfection supernatant.
For assay [14], the target named is recombinant soluble homotrimeric HA, A/Hong Kong/2108/03 (H9N2) (influenza A virus A/Hong Kong/2108/2003 (H9N2)). In words: microarray, trimeric HA, transfection supernatant.
For assay [15], the target named is recombinant soluble homotrimeric HA, A/chicken/Vietnam/NCVD-016/08 (H5N1) (influenza A virus A/chicken/Vietnam/NCVD-016/2008 (H5N1)). In words: microarray, trimeric HA, transfection supernatant.
The target of assay [16] is T1, recombinant homotrimeric HA, A/Wisconsin/67/05 H3N2 (Influenza A virus A/Wisconsin/67/05 (H3N2)). In words: trimeric HA microarray; transfection supernatant set 4.
Assay [17] concerns the target recombinant homotrimeric HA, A/common magpie/Hong Kong/5052/07 H5N1 (Influenza A virus A/common magpie/Hong Kong/5052/07 (H5N1)). Kind of assay: trimeric HA microarray; transfection supernatant set 3.
In assay [18] the target is recombinant homotrimeric HA, A/Indonesia/5/05 H5N1 (Influenza A virus A/Indonesia/5/05 (H5N1)). Described as above.
Assay [19] deals with recombinant homotrimeric HA, A/northern shoveler/California/HKWF115/07 (Influenza A virus A/northern shoveler/California/HKWF115/2007 (H6N1; Table 16 prints H6N4)). The description is as above.
Assay [20] concerns the target recombinant homotrimeric HA, A/California/4/09 H1N1 (Influenza A virus A/California/4/09 (H1N1)). The description is as above.
Assay [21] concerns the target recombinant homotrimeric HA, A/Anhui/1/05 H5N1 (Influenza A virus A/Anhui/1/05 (H5N1)). The description is as above.
Assay [22] deals with recombinant homotrimeric HA, A/Japan/305/57 H2N2 (Influenza A virus A/Japan/305/57 (H2N2)). Described as above.
Assay [23] concerns the target T1, recombinant homotrimeric HA, …. The assay is described as above.
Assay [24] has as its target recombinant homotrimeric HA, A/chicken/Vietnam/NCVD-016/08 H5N1 (Influenza A virus A/chicken/Vietnam/NCVD-016/08 (H5N1)). The assay is described as above.
The target of assay [25] is recombinant homotrimeric HA, A/Vietnam/1203/04 H5N1 (Influenza A virus A/Vietnam/1203/04 (H5N1)). Described as above.
Assay [26] concerns the target recombinant homotrimeric HA, A/Solomon Islands/3/06 H1N1 (Influenza A virus A/Solomon Islands/3/06 (H1N1)). The description is as above.
The target of assay [27] is recombinant homotrimeric HA, A/Egypt/3300-NAMRU3/08 H5N1 (Influenza A virus A/Egypt/3300-NAMRU3/08 (H5N1)). The assay is described as above.
Assay [28] addresses recombinant homotrimeric HA, A/South Carolina/1/18 H1N1 (Influenza A virus A/South Carolina/1/18 (H1N1)). Described as above.
For assay [29], the target named is recombinant homotrimeric HA, A/Hong Kong/1073/99 H9N2 (Influenza A virus A/Hong Kong/1073/99 (H9N2)). Described as above.

B1: TCN-534 (5249_B02) (antibody, V domains shown)
VH: QVQLVQSGAEVKKPGSSVKVSCRESGGTFNGYTITWVRQAPGQGLEWMGGIIPMMGTVNYAQKLQGRVTITTDYFTKTAYMDLNNLRSEDTAMYYCVKIRYTGQQLLWGQGTLVTVSS
VL: DIQMTQSPSTLSASIGDRVTITCRASQSIASWLAWYQQKPGKAPKLLIYEAVNLESGVPSRFSGSGSGTDFTLTISSLQPDDFATYFCQHYGTISQTFGGGTKVEIK
B1: the Trimeric HA Binding RLU in assay [1] was found to be 44200 RLU; in [2], 56600 RLU; in assay [3] it was 52400 RLU; in assay [4], 30100 RLU; in assay [5], 3440 RLU; in [6], 7980 RLU. In addition, the Trimeric HA Binding RLU in [7] was determined as 50600 RLU; in assay [8], 41400 RLU; in assay [9], 46500 RLU; in assay [10] it was 6860 RLU; in assay [11], 46400 RLU; in assay [12], 731 RLU. Moreover, the Trimeric HA Binding RLU came out at 21300 RLU in assay [13], 27 RLU in assay [14] and 11400 RLU in assay [15]. For the same molecule, in assay [16], the Trimeric HA Binding: RLU was 897 RLU.

B2: TCN-533 (5256_A17) (antibody, V domains shown)
VH: QVQLVQSGADVKKPGSSVTVSCKASGGSFSNYGINWVRQAPGQGLEWMGGIIPLINAPNYAPKFQGRVTITADMFSNIVSLQLTSLRTDDTAVYYCARRKMTTAIDYWGQGTLVTVSS
VL: QPVLSQPPSASASLGASVTLTCTLSSGFDNYQVAWYQQRPGKGPRFVMRVGNGGNVASKGDGIPDRFSVSGSGLNRYLTIKNIQEDDESDYYCGADHGSGNNFVSPYVFGGGTKLTVL
With B2, the Trimeric HA Binding RLU in assay [1] came out at 39200 RLU; in assay [2] it was 47700 RLU; in assay [3] it was 41400 RLU; in [4], 29300 RLU; in assay [5], 5680 RLU; in assay [6], 13800 RLU. For the same molecule, the Trimeric HA Binding RLU in assay [7] was determined as 10800 RLU; in assay [8] it was 34300 RLU; in assay [9], 24700 RLU; in assay [10], 8060 RLU; in [11], 44100 RLU. Also, the Trimeric HA Binding: RLU in assay [17] stood at 25200 RLU; in [18], 28300 RLU; in [19], 7810 RLU; in assay [20], 6880 RLU; in assay [21], 301 RLU; in assay [22] it was 18600 RLU. Also, the Trimeric HA Binding: RLU came to 16100 RLU in assay [23]; 24600 RLU in assay [24]; 11700 RLU in assay [25]; 15500 RLU in assay [26]; 18600 RLU in [27]; 16400 RLU in assay [28]. Also, the Trimeric HA Binding: RLU in assay [29] stood at 23800 RLU.

Values taken from patent US20150104459A1.
